Target: importin β1 (mouse (endogenous in 3T6)) (UniProt P70168)
Experiment: proximity ligation

wild type mouse polyomavirus (MPyV) virions, strain A3 (capsid proteins VP1, VP2 and VP3), sequence (P03097 whole entry, looked up): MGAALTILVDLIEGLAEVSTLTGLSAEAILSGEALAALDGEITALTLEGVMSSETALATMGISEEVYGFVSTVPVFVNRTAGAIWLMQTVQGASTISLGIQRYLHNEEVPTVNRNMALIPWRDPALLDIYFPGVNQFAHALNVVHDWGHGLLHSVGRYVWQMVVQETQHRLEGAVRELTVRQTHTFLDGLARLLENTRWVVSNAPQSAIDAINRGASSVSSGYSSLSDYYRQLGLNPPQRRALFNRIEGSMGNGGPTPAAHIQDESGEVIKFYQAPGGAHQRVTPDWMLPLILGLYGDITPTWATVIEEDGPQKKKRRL
wild type mouse polyomavirus (MPyV) virions, strain A3 (capsid proteins VP1, VP2 and VP3), sequence (P03091 whole entry, looked up): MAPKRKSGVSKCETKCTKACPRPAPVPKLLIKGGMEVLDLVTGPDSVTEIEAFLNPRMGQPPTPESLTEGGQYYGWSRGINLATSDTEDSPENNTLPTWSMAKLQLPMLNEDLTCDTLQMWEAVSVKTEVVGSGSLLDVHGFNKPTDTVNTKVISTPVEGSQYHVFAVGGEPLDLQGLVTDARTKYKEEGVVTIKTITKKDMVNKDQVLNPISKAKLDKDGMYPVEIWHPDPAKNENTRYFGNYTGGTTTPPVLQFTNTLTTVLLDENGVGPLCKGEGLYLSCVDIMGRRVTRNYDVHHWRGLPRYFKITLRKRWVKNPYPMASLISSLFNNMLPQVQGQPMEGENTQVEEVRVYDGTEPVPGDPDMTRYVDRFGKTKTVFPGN
importin β1 (mouse (endogenous in 3T6)), sequence (P70168 whole entry): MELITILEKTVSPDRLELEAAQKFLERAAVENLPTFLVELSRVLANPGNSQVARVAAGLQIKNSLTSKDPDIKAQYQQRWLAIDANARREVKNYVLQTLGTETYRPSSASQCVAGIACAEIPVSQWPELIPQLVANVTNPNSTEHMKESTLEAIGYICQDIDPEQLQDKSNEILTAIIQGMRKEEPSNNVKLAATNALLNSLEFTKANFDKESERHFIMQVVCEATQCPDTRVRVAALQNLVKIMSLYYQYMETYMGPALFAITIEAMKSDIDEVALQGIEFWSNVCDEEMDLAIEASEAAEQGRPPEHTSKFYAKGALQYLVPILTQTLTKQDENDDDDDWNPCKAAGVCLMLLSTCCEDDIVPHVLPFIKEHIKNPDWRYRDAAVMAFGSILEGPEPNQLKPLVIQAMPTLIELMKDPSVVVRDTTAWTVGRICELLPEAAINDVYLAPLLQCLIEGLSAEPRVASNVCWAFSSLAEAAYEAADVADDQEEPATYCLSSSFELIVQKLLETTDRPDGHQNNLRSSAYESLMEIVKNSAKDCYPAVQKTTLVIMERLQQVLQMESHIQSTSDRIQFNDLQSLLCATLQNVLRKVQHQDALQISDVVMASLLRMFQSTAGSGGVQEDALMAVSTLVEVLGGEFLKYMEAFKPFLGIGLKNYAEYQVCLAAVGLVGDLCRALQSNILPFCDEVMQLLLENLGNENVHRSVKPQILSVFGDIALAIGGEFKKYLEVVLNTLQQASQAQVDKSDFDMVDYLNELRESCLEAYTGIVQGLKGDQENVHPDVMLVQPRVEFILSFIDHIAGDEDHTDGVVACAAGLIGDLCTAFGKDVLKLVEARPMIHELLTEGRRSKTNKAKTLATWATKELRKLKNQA

## wild type mouse polyomavirus (MPyV) virions, strain A3 (capsid proteins VP1, VP2 and VP3) (from UniProt P03091;P03097) (complex)
  PLA spots per 50 cells (spots per 50 cells): > 1000

— paper PMC5923459
